Common to all, as to test: UV-ligand exchange, anti-b2m ELISA; exchange yield grade (+ >10%, ++ >20%, +++ >50, ++++ >75%)
For orientation: In an ELISA, binding on a coated surface is turned into a signal by an enzyme label.

One assay deals with HLA-A*03:01 (human).
The next assay concerns the target HLA-B*44:02 (human).
The target in another assay is HLA-A*01:01 (human). To be noted: remark: other sources report otherwise.

Like-named read-outs stand apart in the source and are kept apart here.

KITDFGLAK (modifications not checked): in the assay with HLA-A*03:01 (human), the peptide exchange yield lay within 20 to 50%. QQATPGPAY returned a peptide exchange yield with HLA-B*44:02 (human) (remark: other sources report otherwise) of 20 to 50%. The molecule ITEKNSGLY returned a peptide exchange yield with HLA-A*01:01 (human) of 50 to 75%. In turn, AEGGKVPIKW (modifications not checked) gave a peptide exchange yield with HLA-B*44:02 (human) of 50 to 75%.
